Measured values published in IntAct's records for PubMed 22340593.

B1: Tumor protein p73 (Homo sapiens), O15350 (parent)
chain: MAQSTATSPDGGTTFEHLWSSLEPDSTYFDLPQSSRGNNEVVGGTDSSMDVFHLEGMTTSVMAQFNLLSSTMDQMSSRAASASPYTPEHAASVPTHSPYAQPSSTFDTMSPAPVIPSNTDYPGPHHFEVTFQQSSTAKSATWTYSPLLKKLYCQIAKTCPIQIKVSTPPPPGTAIRAMPVYKKAEHVTDVVKRCPNHELGRDFNEGQSAPASHLIRVEGNNLSQYVDDPVTGRQSVVVPYEPPQVGTEFTTILYNFMCNSSCVGGMNRRPILIIITLEMRDGQVLGRRSFEGRICACPGRDRKADEDHYREQQALNESSAKNGAASKRAFKQSPPAVPALGAGVKKRRHGDEDTYYLQVRGRENFEILMKLKESLELMELVPQPLVDSYRQQQQLLQRPSHLQPPSYGPVLSPMNKVHGGMNKLPSVNQLVGQPPPHSSAATPNLGPVGPGMLNNHGHAVPANGEMSSSHSAQSMVSGSHCTPPPPYHADPSLVSFLTGLGCPNCIEYFTSQGLQSIYHLQNLTIEDLGALKIPEQYRMTIWRGLQDLKQGHDYSTAQQLLRSSNAATISIGGSGELQRQRVMEAVHFRVRHTITIPNRGGPGGGPDEWADFGFDLPDCKARKQPIKEEFTEAEIH
B2: Tumor protein p73 (Homo sapiens), O15350 (parent)
chain: B1 chain
partner: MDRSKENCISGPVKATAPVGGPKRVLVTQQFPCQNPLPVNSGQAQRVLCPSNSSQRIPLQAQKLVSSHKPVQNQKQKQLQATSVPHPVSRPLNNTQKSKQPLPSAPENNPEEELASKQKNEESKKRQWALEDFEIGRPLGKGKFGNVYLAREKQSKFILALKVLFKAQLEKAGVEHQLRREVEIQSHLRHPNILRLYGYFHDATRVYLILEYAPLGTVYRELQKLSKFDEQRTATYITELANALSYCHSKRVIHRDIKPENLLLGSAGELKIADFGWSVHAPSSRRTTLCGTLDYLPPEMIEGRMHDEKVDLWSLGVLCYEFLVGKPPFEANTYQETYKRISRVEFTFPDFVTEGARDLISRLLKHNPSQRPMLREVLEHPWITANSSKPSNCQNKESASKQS

Variants of: B1
Conditions: with hspa9_human HSPA9, P38646
Chain of hspa9_human HSPA9, P38646 (P38646 whole entry): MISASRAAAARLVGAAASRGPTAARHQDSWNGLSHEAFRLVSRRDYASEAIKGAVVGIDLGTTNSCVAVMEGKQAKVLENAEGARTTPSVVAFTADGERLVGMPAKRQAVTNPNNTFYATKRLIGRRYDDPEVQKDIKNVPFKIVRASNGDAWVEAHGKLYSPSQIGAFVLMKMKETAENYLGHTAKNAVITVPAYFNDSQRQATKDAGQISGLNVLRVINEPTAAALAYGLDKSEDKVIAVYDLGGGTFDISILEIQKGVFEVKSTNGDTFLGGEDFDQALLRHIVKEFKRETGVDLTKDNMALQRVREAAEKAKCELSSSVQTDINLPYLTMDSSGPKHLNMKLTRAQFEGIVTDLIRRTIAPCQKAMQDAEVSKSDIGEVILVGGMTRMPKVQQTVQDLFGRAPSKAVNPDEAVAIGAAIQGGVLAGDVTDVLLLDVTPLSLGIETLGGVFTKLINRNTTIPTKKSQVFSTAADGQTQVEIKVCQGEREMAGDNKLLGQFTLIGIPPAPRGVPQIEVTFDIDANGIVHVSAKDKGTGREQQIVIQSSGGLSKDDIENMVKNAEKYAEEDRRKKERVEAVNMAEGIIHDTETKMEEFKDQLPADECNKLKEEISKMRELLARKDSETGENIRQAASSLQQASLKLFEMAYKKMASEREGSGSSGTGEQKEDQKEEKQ

| Variant | effect of a mutation on the interaction |
| --- | --- |
| S235D | increasing interaction strength |

Variants of: B2
Conditions: with aurka_human AURKA

| Variant | effect of a mutation on the interaction |
| --- | --- |
| S235D | increasing interaction strength |
